Test results as given in CN114751980A (XIAMEN BOANG BIOTECHNOLOGY CO LTD, dated 2022).

Molecular target: T1, 重组N蛋白 (新冠病毒 (SARS-CoV-2), UniProt P0DTC9 1-419)
T1 construct: also called 新冠病毒N蛋白
Test: indirect ELISA

B1: 单抗阻断剂A3-4 (antibody, V domains shown)
VH: EVQLEESGGGLVQPGGSRKLSCIASGIIFHNFGMHWIRQAPEKGLEWVAYISGLSRNISYADTVKGRFTISRDNPKNTLFLQMTSLRSEDTAMYYCSRGWAYDAAFWGQGTLVTVS
VL: DVVMTQTPLTLSVTIGQPASFSCKSSRSLLSSNGKIYLNWLLQRPGQSPKRLIYLVSKLDSGVPDRFTGSGSGTDFTLQINRVEAEDLGVYYCVQGTHFPLTFGAGTKLELKR
notes: also called 新冠病毒检测用单抗阻断剂
binding result: no binding
